From patent US20180134756A1 (NATIONAL INSTITUTE OF ADVANCED INDUSTRIAL SCIENCE AND …, published 2018)

Target: T1, Aleuria Aurantia Lectin (AAL) (Aleuria aurantia, UniProt P18891 2-313)
T1 construct: Used as the probe in lectin blotting
T1 sequence (looked up): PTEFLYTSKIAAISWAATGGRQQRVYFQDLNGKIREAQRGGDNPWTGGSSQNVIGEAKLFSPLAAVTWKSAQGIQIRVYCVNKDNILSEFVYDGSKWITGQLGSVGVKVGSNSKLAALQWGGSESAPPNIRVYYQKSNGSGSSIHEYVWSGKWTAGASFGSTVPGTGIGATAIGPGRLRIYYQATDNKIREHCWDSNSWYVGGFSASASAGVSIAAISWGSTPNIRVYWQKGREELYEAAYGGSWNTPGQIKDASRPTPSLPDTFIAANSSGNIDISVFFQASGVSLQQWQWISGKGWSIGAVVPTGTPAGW
Assay: lectin blotting
Method: It was reported that the natural WFA (nWFA) has a sugar chain including fucose, and thus, the lectin blotting was performed using Aleuria Aurantia Lectin (AAL) recognizing fucose. As a result, it was confirmed that the nWFA was a glycoprotein including a sugar chain that reacted to AAL (FIGS. 5A and 5B).

- binding result: binds
B1: natural Wisteria floribunda lectin (nWFA), purified, purchased from Vector Lab (other)
chain: KETTSFVFTRFSPDPQNLLLQGDTVVTSSGHLQLTQVKDGEPVYSSLGRALYYAPIHIWDSNTDTVANFVTSFSFVIDAPNKAKAADGLAFFLAPVDTEPQKPGGLLGLFHDDRHNKSNHIVAVEFDTFKNSWDPEGTHIGINVNSIVSRKTTSWDLENGEVANVVISYQASTKTLTASLVYPSSSTSYILNDVVDLKQILPEYVRVGFTAASGLSKDHVETHDVLAWTFDSDLPDPSSDDCN
modifications: one N-glycan (fucose-containing) expected at Asn146; disulfide bond between the two Cys272
notes: Lectin purified from seeds; Disulfide-linked dimer of about 60 KDa; also called natural WFA; nature-derived WFA
